To fix the notation:
B1: Hairpin Ribozyme (parent)
chain: GUCCUCUUUCACGUGCGCGUGAAAGAGAGAAGUGAACCAGAGAAACACACGUUGUGGUAUAUUACCUGGUA

In this data set the parent is B1. Put plainly: self-cleavage, relative activity (ratio to wild type); higher = more cleavage; co-transcriptional.
With C4U G69U, the self-cleavage was 0.177. Under C4U A30C stands 0.104.

Regarding C4U A30G, the self-cleavage stood at 0.128. As for U5A U53A, the figure is 0.221; as for U5A U53C, 0.452; as for U5C C65A, 0.511.

In the case of C4U U67A, the self-cleavage came out at 0.121. As for C4A A71G, the figure is 0.346. For U5A U20A, the self-cleavage worked out at 0.315.

C4U A22U: the self-cleavage was 0.362. Under C4A A59G stands 0.145; under C4A A44C, 0.0924; under C4A A44G, 0.0937. Under C4G A23U stands 0.147; under U5A A47U, 0.0694; under U5A A47C, 0.187. As for U5A A47G, the figure is 0.102. As for U5C G19A, the self-cleavage came to 0.422. As for C4A G56U, the figure is 0.166. For U5A, the self-cleavage was 0.368. As for U5C, the figure is 0.648; as for U5A A26C, 0.491; as for C4A U33G, 0.234. As for C4U A59C, the figure is 0.126; as for C4A G57U, 0.169. Under C4U U5A stands 0.0527; under C4U G19C, 0.219; under C4U G19A, 0.327. For the variant C4U C38G, the self-cleavage amounted to 0.0751. With C4U C38A, the self-cleavage is 0.13. In the case of C4U U55A, the self-cleavage is 0.0732. Under C4G A11C stands 0.113; under C4G A11U, 0.232; under C4A A45U, 0.148. Under C4A A45G stands 0.151. Under C4G A43C stands 0.121; under C4G A43U, 0.053; under U5C G54C, 0.169. Take U5C G54U: the self-cleavage was 0.492. With U5C G54A, the self-cleavage is 0.467.

Regarding U5C A44C, the self-cleavage worked out at 0.0386. As for C4A A31U, the figure is 0.245; as for C4U A24C, 0.33.

In the case of C4U A24G, the self-cleavage came out at 0.272. Under C4A U5A stands 0.125. Under C4G U33C stands 0.0651. As for C4G U33G, the figure is 0.13.

In the case of C4G C16A, the self-cleavage amounted to 0.304. Under C4G C16U stands 0.194. As for U5C C6G, the figure is 0.138; as for C4A U55G, 0.107; as for C4G C48A, 0.151. For C4U U20G, the self-cleavage was 0.213. As to U5C A43G, the self-cleavage came out at 0.201. As for C4A A39C, the figure is 0.166; as for C4G A39U, 0.123; as for C4G G13C, 0.178. As for U5C G17A, the figure is 0.644. Under U5C G17U stands 0.794. For the variant C4G A36G, the self-cleavage was 0.248.

For C4G U9A, the self-cleavage came out at 0.162.

For the variant C4A G15C, the self-cleavage was 0.358. Regarding C4G G25C, the self-cleavage was 0.157. For C4G A22G, the self-cleavage turned out to be 0.326.

Consider C4G A22U, for which the self-cleavage is 0.196. Under C4G U8C stands 0.0934; under C4A A30C, 0.0814; under C4A C16G, 0.236. As for C4U U58A, the figure is 0.172; as for U5A C38A, 0.142. Under C4A G21U stands 0.178; under C4A G21C, 0.175. For C4A C12G, the self-cleavage turned out to be 0.245. As for C4A U70C, the figure is 0.119; as for C4A U70A, 0.25. Take U5A A11C: the self-cleavage was determined as 0.281.

Regarding C4A U20G, the self-cleavage came out at 0.259.

For the variant C4U U53G, the self-cleavage worked out at 0.412. Under C4G G21A stands 0.0893; under U5A U7G, 0.253. Under C4U A35U stands 0.199; under U5C G56U, 0.128; under U5C G56A, 0.107. Consider U5A A49U, for which the self-cleavage turned out to be 0.0811. As for U5A A49C, the figure is 0.124. As for C4U U70A, the figure is 0.299; as for C4U U70C, 0.341; as for U5C A35C, 0.732. Regarding U5C A35U, the self-cleavage is 0.0604. Under C4U A49C stands 0.259; under C4U A49U, 0.128.

In the case of C4U U63G, the self-cleavage came to 0.103. As for U5A U8A, the figure is 0.285; as for U5A U8C, 0.141; as for U5A U8G, 0.261.

With C4A G68C, the self-cleavage turned out to be 0.141.

On to C4A G68A, for which the self-cleavage was determined as 0.17. Under C4G U67C stands 0.0875; under C4A U67A, 0.155; under C4A U67G, 0.144. Under C4U U60A stands 0.199; under C4U U60C, 0.48.

C4A A61G: the self-cleavage was 0.279. Under C4A A61C stands 0.173.

Turning to C4A A61U, the self-cleavage came to 0.122.

Regarding U5C A71U, the self-cleavage was determined as 0.564. As for C4U A28G, the figure is 0.458; as for C4G U20A, 0.225; as for C4G A26C, 0.259. Regarding C4A C37G, the self-cleavage is 0.0599. Under C4A C37A stands 0.159.

In the case of C4A C66A, the self-cleavage amounted to 0.146. Under U5A A45G stands 0.0727; under U5A A45U, 0.141; under C4G C46U, 0.235. Under C4G C46A stands 0.102; under C4U A26G, 0.221. As for C4G G68U, the figure is 0.0845; as for C4G G68C, 0.134; as for C4G G40C, 0.164. As to C4U C37A, the self-cleavage came to 0.158.

Take U5C C66G: the self-cleavage stood at 0.113. Take U5C C66U: the self-cleavage worked out at 0.38. Under U5C G32A stands 0.162; under C4G G69C, 0.193. As for U5C A24C, the figure is 0.483. For the variant U5C A24G, the self-cleavage is 0.453. Under U5A A71C stands 0.884; under C4U A71G, 0.426; under C4G A31G, 0.238.

With U5A U9C, the self-cleavage is 0.179.

For the variant U5C A61C, the self-cleavage came out at 0.128. As for U5C A61G, the figure is 0.176; as for U5A G40U, 0.101; as for U5A C6A, 0.337. On to C4U, for which the self-cleavage was 0.371.

Regarding C4G, the self-cleavage was determined as 0.225. As for C4U A45C, the figure is 0.122. Under C4U A45G stands 0.199; under C4G U5A, 0.203; under C4G U5G, 0.0498. As for C4U C16U, the figure is 0.362; as for C4A G25U, 0.214.

U5A G42A: the self-cleavage is 0.217.

In the case of U5A A43G, the self-cleavage is 0.0784. As for U5A A43C, the figure is 0.113; as for U5C U14G, 0.385. As for U5C U14C, the figure is 0.557. Consider U5C A59C, for which the self-cleavage was 0.105. Under C4G G51U stands 0.223; under C4G G51C, 0.207; under C4A U52C, 0.182. Under C4A U52G stands 0.22; under C4G A45U, 0.112; under U5C C50U, 0.17.

Turning to U5C A49U, the self-cleavage turned out to be 0.143.

Regarding C4A G69A, the self-cleavage was 0.141.

Consider C4A U62C, for which the self-cleavage is 0.118. As for C4A U62A, the figure is 0.167. U5A U55C: the self-cleavage is 0.157. Under C4A U7G stands 0.221.

Regarding C4U U62C, the self-cleavage was found to be 0.16. As for C4U U62G, the figure is 0.181. As for U5A C46U, the figure is 0.0644. Under U5A C46A stands 0.16; under C4G C12G, 0.216. U5C C38A: the self-cleavage is 0.168.

These data come from the RNAGym collection of RNA variant scans (doi:10.7554/elife.80360).
